From patent US20220193133A1

Molecular target: D04-his tagged VHH (humanized D04)
Assay: Octet (BLI), anti-idiotype VHH-Fc vs his-tagged VHH; table title prints B11-his, paragraph 353 ties these values to D04

B1: AMD71 (huB11_CNTY3+4_A02 anti-idiotype VHH IgG1-Fc fusion) (Fc fusion, not shown: a dimerising Fc or GST)
chain: EVQLLESGGGLVQPGGSLRLSCAASGRTYTGSAMGWYRQAPGKERELVSAISTGGETYYADSVKGRFTISRDNSKNTLYLQMNSLRAEDTAVYYCAAGYVGLPYTYRPATSRRGYTYWGQGTQVTVSS
Response: 0.0062
koff: < 1e-07 s⁻¹
kon: 2160 M⁻¹ s⁻¹
